Response data for four variants are collected here from publication PMC4132065 (2014).

The labels stand for the following.
B1: LexA BD-Pxa2_NBD-CT [S. cerevisiae] / Gal4 AD-Pxa1_NBD [S. cerevisiae] (parent complex)
chain 1: GNDMTADFITNRRLLVTASSSIGRFVELKRNIQQLRGIRLRLNKFNDLLDANKGDDEKEPRDERCIVEYDDSRIKFENIPLITPANQVLVPELSFDLKHGNHLLIIGPNGCGKSSLFRILGGLWPIRATPNKNHQSKLIMPRRTVDRDCAIFYLPQRPYMGNRSTFREQIIYPDSIEQFKERYHNDYDLGDADLIKILQLLDLEDLVTENMSLLLAQRTSKNDSQQLSTEDNQSPCAIKVRDAFSIVRNWSEELTIGVQQRLAMARMYYHKPKFAVLDECTSAVAPEMEQRMYENAQNFGISLISVCHRTSLWHFHNYLLKFDGKGGYQFGPFNPKERLCNEEKLLELNAILDQQVPLWERKLKDLTIAKESNIIRKSETNLNLFEKIEDPKTSKSNALFNANKGQRITSPTGQETSKRLPLFSQPSSSASSNLLRNNKSLNKKVKTKKEEGKER
chain 2: SRLMHSIKDISQLTGYTNRIFTLLSVLHRVHSLNFNYGAVPSILSIRTEDASRNSNLLPTTDNSQDAIRGTIQRNFNGIRLENIDVIIPSVRASEGIKLINKLTFQIPLHIDPITSKSNSIQDLSKANDIKLPFLQGSGSSLLILGPNGCGKSSIQRIIAEIWPVYNKNGLLSIPSENNIFFIPQKPYFSRGGTLRDQIIYPMSSDEFFDRGFRDKELVQILVEVKLDYLLKRGVGLTYLDAIADWKDLLSGGEKQRVNFARIMFHKPLYVVLDE
B2: LexA BD-Pxa2_NBD-CT [S. cerevisiae] / Gal4 AD-Pxa1_NBD-CT [S. cerevisiae] (parent complex)
chain 1: B1 chain 1
chain 2: SRLMHSIKDISQLTGYTNRIFTLLSVLHRVHSLNFNYGAVPSILSIRTEDASRNSNLLPTTDNSQDAIRGTIQRNFNGIRLENIDVIIPSVRASEGIKLINKLTFQIPLHIDPITSKSNSIQDLSKANDIKLPFLQGSGSSLLILGPNGCGKSSIQRIIAEIWPVYNKNGLLSIPSENNIFFIPQKPYFSRGGTLRDQIIYPMSSDEFFDRGFRDKELVQILVEVKLDYLLKRGVGLTYLDAIADWKDLLSGGEKQRVNFARIMFHKPLYVVLDEATNAISVDMEDYLFNLLKRYRFNFISISQRPTLIKYHEMLLEIGENRDGKWQLQAVGTDEAITSIDNEIEELERKLERVKGWEDERTKLREKLEII

The first experiment covers variants of B1. Put plainly: yeast two-hybrid, quantified with Yeast β-Galactosidase Assay Kit (Thermo); n = 3; parent: 185; read off a plot.
Consider chain 1 Y328L, for which the response is about 17.
For the variant chain 1 F333A, the response is about 41.

A further experiment covers variants of B2. Put plainly: yeast two-hybrid, quantified with Yeast β-Galactosidase Assay Kit (Thermo); n = 3; parent: 190; read off a plot.
Turning to chain 1 Y328L, the response was about 38.
Take chain 1 F333A: the response was about 69.
